How the values were obtained:
[1] = biological target: T1, Atto643-labeled his6-β1 integrin cytoplasmic tail peptide (UniProt P05556 752-798, Atto643 label (position not given)); assay: FRAP of the tethered partner on supported lipid bilayers (slowdown of diffusion); his6-β1 tails tethered to DGS-NTA-Ni on 5% PIP3 supported lipid bilayer; 1 μM kindlin or 1 μM talin, 30-min incubation; HEPES buffer pH 7.4, 150 mM KCl, 2.5 μM ZnCl2; t1/2_fast against β1 tails alone; conditions: both partners purified
T1 construct: integrin β1 cytoplasmic tail; Tethered by its his6 tag to DGS-NTA-Ni lipids of the supported lipid bilayer; also called β1 tails; his6-tagged integrin β1 tails; source: synthetic peptide (synthesized and purified by the MPIB Core Facility)
T1 peptide (looked up): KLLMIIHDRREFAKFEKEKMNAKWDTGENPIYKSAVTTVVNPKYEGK

[2] = biological target: T1, Atto643-labeled his6-β1 integrin …; assay: FRAP of the tethered partner on supported lipid bilayers (slowdown of diffusion); his6-β1 tails tethered to DGS-NTA-Ni on 5% PIP2 supported lipid bilayer; 1 μM kindlin or 1 μM talin, 30-min incubation; HEPES buffer pH 7.4, 150 mM KCl, 2.5 μM ZnCl2; t1/2_fast against β1 tails alone; conditions: both partners purified

- fold slowdown of β1 tail diffusion against β1 tails alone [1]: 3.3 times
- fold slowdown of β1 tail diffusion against β1 tails alone [2]: 2.6 times
B1: Kindlin-2 (natural protein, UniProt Q96AC1 1-680, looked up)
chain: MALDGIRMPDGCYADGTWELSVHVTDLNRDVTLRVTGEVHIGGVMLKLVEKLDVKKDWSDHALWWEKKRTWLLKTHWTLDKYGIQADAKLQFTPQHKLLRLQLPNMKYVKVKVNFSDRVFKAVSDICKTFNIRHPEELSLLKKPRDPTKKKKKKLDDQSEDEALELEGPLITPGSGSIYSSPGLYSKTMTPTYDAHDGSPLSPTSAWFGDSALSEGNPGILAVSQPITSPEILAKMFKPQALLDKAKINQGWLDSSRSLMEQDVKENEALLLRFKYYSFFDLNPKYDAIRINQLYEQAKWAILLEEIECTEEEMMMFAALQYHINKLSIMTSENHLNNSDKEVDEVDAALSDLEITLEGGKTSTILGDITSIPELADYIKVFKPKKLTLKGYKQYWCTFKDTSISCYKSKEESSGTPAHQMNLRGCEVTPDVNISGQKFNIKLLIPVAEGMNEIWLRCDNEKQYAHWMAACRLASKGKTMADSSYNLEVQNILSFLKMQHLNPDPQLIPEQITTDITPECLVSPRYLKKYKNKQITARILEAHQNVAQMSLIEAKMRFIQAWQSLPEFGITHFIARFQGGKKEELIGIAYNRLIRMDASTGDAIKTWRFSNMKQWNVNWEIKMVTVEFADEVRLSFICTEVDCKVVHEFIGGYIFLSTRAKDQNESLDEEMFYKLTSGWV
notes: Kindlin-2; the species may be mouse there; source: E. coli (DE3) Rosetta 2, purified (Ni-NTA IMAC, SenP2 digest, size-exclusion chromatography); not shown: His-SUMO, N-terminal, cleaved

Source: paper PMC13507320, “Synergistic effect of PIP2 and PIP3 on membrane-induced phase separation of integrin complexes” (Biophysical Journal, 2025)
